Laboratory results taken from the supplement of paper PMC7125110.
± gives the standard error. This sample holds only a part of the variants without activity.

B1: glmS ribozyme (parent)
chain: AUAAAAGCGCCAGAACUACAGAAAUGUAGUUGACGAGGAGGAGGUUUAUCGAAUUUUCGGCGGAUGCCUCCAAA

Variants of: B1
Assay: self-cleavage kobs at 2500 uM GlcN6P; higher = faster cleavage; RNA array
Conditions: with glucosamine-6-phosphate
In short: (§1)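 Over ~14 h at 37 °C, tiles were imaged as glucosamine-6-phosphate (40 μM to 10 mM) in HEPES/KCl/Mg(OAc)2 buffer flowed across sequenced MiSeq chips. The chips carried barcoded ribozyme variants transcribed in situ by E. coli RNA polymerase and tracked with a hybridised Cy3 probe. After normalisation to baseline and to non-cleaving reference variants, one- or two-exponential decay fits of per-tile medians gave kobs. kcat and KM followed from weighted Michaelis–Menten fits across concentrations.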

Row | Variant | self-cleavage kobs at 2500 uM GlcN6P [s⁻¹]
1 | A6C C8G A14C A48C | < 1e-05
2 | A6U U30A A33C U45G C58A | < 1e-05
3 | A6G G13C U65A U69C | < 1e-05
4 | A6G A15U G59C | < 1e-05
5 | A5U C10G A42U U57C C70A | < 1e-05
6 | G7C A36G G37C U56A G66A | < 1e-05
7 | G7U A12C C16U G60A | < 1e-05
8 | A6G U30C C34U | < 1e-05
9 | U47C U55A | 0.00273 ± 0.00077
10 | G44A U46C C68A | < 1e-05
11 | G7A C10U G35U G43U | < 1e-05
12 | C58G C68A U69G | 5.37e-05 ± 2.4e-05
13 | G7U G41C C50U | < 1e-05
14 | A6U A15G A53G | 0.000262 ± 4.9e-05
15 | A6C G40A U46G G51U | < 1e-05
16 | U47A U56A C70U | 0.00157 ± 0.0006
17 | U55G G66C C70U | 0.000343 ± 8.7e-05
18 | U46A U47C C70A | 0.000206 ± 3.7e-05
19 | G7U G35U G37C U46C C68A | < 1e-05

Row | Variant | self-cleavage kobs at 2500 uM GlcN6P [s⁻¹]
20 | U46C G60U | < 1e-05
21 | A6C A36U G37C A39U | < 1e-05
22 | A6G A33G A42U G60U | < 1e-05
23 | U45G G66C | 0.000927 ± 0.00042
24 | G44U G60C G62U | < 1e-05
25 | U49C U65C U69A | < 1e-05
26 | A6U G41U G59A G62C | < 1e-05
27 | A6C G38A G62U | < 1e-05
28 | G7A G9A A14C G44A | < 1e-05
29 | A6G G43C C58G | < 1e-05
30 | A6G C11A U49G | < 1e-05
31 | G7C A15U U31C | < 1e-05
32 | A6U A14U U31C A42G A52C A64C | < 1e-05
33 | A6G G40A G41C | < 1e-05
34 | G7C C11A G60C | < 1e-05
35 | G7C C10A C16G C61A | < 1e-05
36 | G7U U30G A33U G44C | < 1e-05
37 | G44U A48G C50G | < 1e-05
38 | U57G C58G C67G | 6.13e-05 ± 2.6e-05

Row | Variant | self-cleavage kobs at 2500 uM GlcN6P [s⁻¹]
39 | A6U A15G C16U | 5.09e-05 ± 1.6e-05
40 | A53G U54A G63U | < 1e-05
41 | A6U U56A G63U | < 1e-05
42 | A6U C8G G44C A53G | < 1e-05
43 | G7C U30G G32U A64G | < 1e-05
44 | A6U G32U U57G | < 1e-05
45 | A6C A39C G60U | < 1e-05
46 | G7A C16U U47C C58G | < 1e-05
47 | A48U G59A C67U | < 1e-05
48 | A6G C11G U45A C50A | < 1e-05
49 | A6U C10A C70A | 0.000332 ± 0.00011
50 | A6C A12G G37A | < 1e-05
51 | G7U C16G A48U | < 1e-05
52 | G7U A42C A64U G66U | < 1e-05
53 | U45G U46C C61A G66U | < 1e-05
54 | U46C U69G | 0.000153 ± 2.7e-05
55 | U47C A52G G66A | 0.000112 ± 2.4e-05
56 | A6U C67G C71A | < 1e-05

Variants of: B1
Assay: self-cleavage kobs at 640 uM GlcN6P; higher = faster cleavage; RNA array
Conditions: with glucosamine-6-phosphate
In short: as §1

Row | Variant | self-cleavage kobs at 640 uM GlcN6P [s⁻¹]
57 | U46A U65A | 0.000776 ± 0.0002
58 | U47C U55A | 0.00113 ± 0.00019
59 | G44A U46C C68A | < 1e-05
60 | C58G C68A U69G | 0.000107 ± 3.5e-05
61 | U47A U56A C70U | 0.00117 ± 0.00047
62 | U55G G66C C70U | 0.000456 ± 0.0001
63 | U46A U47C C70A | 9.01e-05 ± 2.2e-05
64 | G44C C58G C61G | < 1e-05
65 | U46G C67U C71A | 6.72e-05 ± 2e-05
66 | U49C C58U G66A | < 1e-05
67 | U46C G60U | < 1e-05
68 | A53U C58U C67U | 9.41e-05 ± 4.6e-05
69 | U55G U56A G60U C71U | < 1e-05
70 | U45G G66C | 0.000414 ± 0.00017
71 | G44U G60C G62U | < 1e-05
72 | U49C U65C U69A | < 1e-05
73 | A48G C50G C58G | 0.000184 ± 8.1e-05

Row | Variant | self-cleavage kobs at 640 uM GlcN6P [s⁻¹]
74 | U49C C61A | < 1e-05
75 | G60U G62A C67U | < 1e-05
76 | C50A G51U | < 1e-05
77 | U45G U47A A52G C68G | < 1e-05
78 | A48U U49A C68A | < 1e-05
79 | G43U U54G C58A C67U | < 1e-05
80 | G44U A48G C50G | < 1e-05
81 | U57G C58G C67G | 0.000157 ± 5.5e-05
82 | A53G U54A G63U | < 1e-05
83 | G62A G66C C67A | < 1e-05
84 | C50A A52C C61A C68U | 0.000706 ± 0.00019
85 | A48U G59A C67U | < 1e-05
86 | U45G U46C C61A G66U | < 1e-05
87 | U46C U69G | 8.03e-05 ± 1.7e-05
88 | U47C A52G G66A | 5.64e-05 ± 1.2e-05
89 | C58A C61G C68U | 0.000169 ± 7.3e-05
90 | U46A C58G | < 1e-05

Variants of: B1
Assay: self-cleavage kobs at 10000 uM GlcN6P; higher = faster cleavage; RNA array
Conditions: with glucosamine-6-phosphate
In short: as §1

Row | Variant | self-cleavage kobs at 10000 uM GlcN6P [s⁻¹]
91 | U47C U55A | 0.00496 ± 0.0011
92 | A6U A15G A53G | 0.000262 ± 5.8e-05
93 | U45G G66C | 0.00369 ± 0.00067
94 | G44U G60C G62U | < 1e-05
95 | C50A G51U | < 1e-05
96 | G44U A48G C50G | < 1e-05
97 | U57G C58G C67G | 3.89e-05 ± 1.9e-05
